In publication doi:10.1101/755678:

Key:
[1] = biological target: RagA (TonB dependent transporter, PG_0185) of P. gingivalis W83 (Porphyromonas gingivalis W83); assay: crystal structure
[2] = biological target: RagA (TonB dependent transporter, PG_0185) of P. gingivalis W83 (Porphyromonas gingivalis W83); assay: cryo-EM structure
[3] = biological target: RagAB complex from wild-type P. gingivalis W83, 8×His-tag on the C terminus of RagB (Porphyromonas gingivalis W83); assay: MST
[4] = biological target: RagB from W83, mature part, C-terminal His6-tag, expressed in E. coli (Porphyromonas gingivalis W83); assay: MST
[5] = biological target: RagB from ATCC 33277, mature part, C-terminal His6-tag, expressed in E. coli (Porphyromonas gingivalis ATCC 33277); assay: MST

## RagA (TonB dependent transporter, PG_0185) of P. gingivalis W83 (natural protein)
[1]
  stoichiometry N: 2
[2]
  stoichiometry N: 2

B1: P21 peptide (21 residues from the C-terminus of ribosomal protein L7) (peptide)
peptide: KATAEALKKALEEAGAEVELK
[3]
  Kd: 400 nM
[4]
  Kd: 2 mM
[5]
  Kd: 700 µM

B2: P4 peptide (unlabelled) (peptide)
peptide: NIFKKNVGFKK
[4]
  Kd: 2 mM
[5]
  Kd: 70 µM
